Experimental data: the DeepSol protein solubility set

experiment: soluble on expression in E. coli; label from the status in PepcDB or PDB records

Sequence	soluble on expression in E. coli
MGHHHHHHSHPPCRPCRYKKYVFLDPLAGAVTKTHVMLGAETEEKLFDAPLSISKREQLEQQVGGAGQRWRQVQWPRALPELLSSQGCWALYSTHGRCTQGLVGCPCRSLSPLTCPCLILQVPENYFYVPDLGQVPEIDVPSYLPDLPGIANDLMYIADLGPGIAPSAPGTIPELPTFHTEVAEPLKTYKMGY	not soluble
MTESFAELFEASQANLAKLKPGSIVTGTVVEVRGDVVVINAGLKSEGIVPIEQFRNDAGEIDVGVGDQVKVALDSIENGFGETVLSREKAKRAMVWDELEEALEKNETITGRISGKVKGGFTVDIKDVRAFLPGSLVDVRPVRDPAYLEGKELEFKLIKLDRKRNNVVVSRRAVVESEHSEEREQLMDKLQEGAILKGVVKNLTDYGAFVDLGGIDGLLHITDMAWKRVRHPSEVVNVGDELDVRVLKFDRERNRVSLGLKQLGEDPWDNIARRYPANSRVFGKVSNVTDYGAFVEIEPGVEGLVHVSEMDWTNKNVNPSKVVQVGDEVEVMVLDVDEERRRISLGMKQVAANPWETFAATHKKNDKVSGQIKSITDFGIFIGLDGGIDGLVHLSDISWNTTGEDVVRNYKKGDTLEAVVLAVDPERERISLGVKQLEQDPFGQYMASNPKGSKVEGVVREVDAKGATIDLADGIEGYVAARDIANERVDDATQHLKVGDKIEAKFVGMDRKGRTLQLSIKAKDDAEMREVLEEYQSASGGTTQLGALLRAQLNSNKSELEHHHHHH	soluble
MGSDKIHHHHHHKKAVINDSNTPLHLLQPAYQGTYGDLTPEQVKKDIDRVFAYIDKETPARVVDKNTGKVITDYTAMGDEAQLERGAFRLASYEWGVTYSALIAAAETTGDKRYTDYVQNRFRFLAEVAPHFKRVYEEKGKTDSQLLQILTPHALDDAGAVCTAMIKLRLKDESLPVDGLIQNYFDFIINKEYRLADGTFARNRPQRNTLWLDDMFMGIPAVAQMSRYDKEAKNKYLAEAVKQFLQFADRMFIPEKGLYRHGWVESSTDHPAFCWARANGWALLTACELLDVLPEDYPQRPKVMDYFRAHVRGVTALQSGEGFWHQLLDCNDSYLETSATAIYVYCLAHAINKGWIDAIAYGPVAQLGWHAVAGKINEEGQVEGTCVGTGMAFDPAFYYYRPVNVYAAHGYGPVLWAGAEMIRLLNTQHPQMNDSAVQYYQEKQKTTAPIFAVDSE	not soluble
GPGSMDTRDRPLPRTPPLQTPRGSCHPPLLTVEEDVRRAGQVRQVRPTKELNCRHQTSLQLYREHRRCEAEGFKERRVILRVWVLHGQHAPGGHTRPHPTGAQDRDAQAPQLRRAVESRLSPTHYEAEGDGRLNRRHHTTTACSHQRPHILRHIRRGNKDVAP	not soluble
MGSDKIHHHHHHVGRIEGQACPATGIWLLPARRQTAYRIQKTSYSALSAPARMDGTDRLAWGRYDTVGTTLYLAENAECAFSETLSPFKRAIGTVDPLRKDADALGMTLEDFYEEVAYQWQEKSFMNSGTLPRIWRTERQLHIVELPFPGWWIDVEHPETMAAVEAAIPDTLKDLGITHVDTSLLRSNRRDVTTAIADHLRDLVLFDGSYAPGIKFGSRHGAYLNWAVWLRDHDLQLSGDDGLVHLGESPISFNDPDLEAASRRFRLKVF	not soluble
MSNDLTQITQRSLDEQVIGNLNRLQEQGLEMPPGYSPQNALKSAFFELTNNSGGNLLQLAANNPETKTSISNALLDMVIQGLSPAKKQCYFIKYGNKVQLMRSYFGTMAVLDRVTGGADITPVVVREGDVFEIAMDGPDLVVAKHETAFENLDNDIKAAYVVIKLANGKEVTTVMTKKQIDKSWSKAKTKNVQNDFPEEMAKRTVINRAAKYLINTSNDNDLFVQAAKDTLENEFERKDVTPEREEQAAVLEEKLFSNNIKAVDQENENERITRVADVPEQPDIEQAKPIEKDNLTKVADQILEEPVQETLDVMAGYETNQKESEADVSTIEEDDYPF	not soluble
MSGNSLKGKRIGFGLTGSHCTYDAVFPEIEKLVNEGAEVLPIVTYTVKTTNTRFGEGEEWVKKLEQLTGNEVIDTIVKAEPLGPKIPLDCMVIAPLTGNSMSKLANAMTDSPVLMAAKATMRNHRPVVLGISTNDALGLNGVNLMRLMAAKNIYFIPFGQDAPQAKPNSMVAYMPLLRDTILAALEGKQLQPVIIERFRYN	not soluble
MIMFNYQQTSQSCVKCGKCIPSCTIYNIHPDEVTSPRGFIDLLGAYQRGELELDKNAKDIFEKCFLCTNCTYVCPNLLPTDQVIENVRAEIAQKFGIAWFKRAYFFLLRNRWLEHHHHHH	soluble
MHHHHHHSSGRENLYFQGDPRRRNILRSLRRNTKKPKPKPRPSITKATWESNYFGVPLTTVVTPEKPIPIFIERCIEYIEATGLSTEGIYRVSGNKSEMESLQRQFDQDHNLDLAEKDFTVNTVAGAMKSFFSELPDPLVPYNMQIDLVEAHKINDREQKLHALKEVLKKFPKENHEVFKYVISHLNKVSHNNKVNLMTSENLSICFWPTLMRPDFSTMDALTATRTYQTIIELFIQQCPFFFYNR	soluble
SEERLNYIVFNQNISNMANKEVRQALSYALNRNEMIESAYGKEGSVPAKSILVPEADFYTEEGVEGYDQDTNKAKDLLDKSGVKIDKLKIGYNTGRFGHKNYALVAQQELKKIGIEAEIVPYESKAFFNILFSNSTECDMYVNGYAWGLEPNPYRGMFETGQYCNQTKYSNAEIDALWEKGFTELNKEKREEIYKQIQQDISKDAPIYTIDYEQNLMAAQKNL	not soluble
MGSDKIHHHHHHMNGQLLRQIANYQILYSACCKDLGLLRGKIGISLFFFHYAHFCGDSLYSDYANELIGDVYDDIRIDTPWGIRNGLLGIGWGLEYFMQKGFVECGSNDILTELDNKIMERDLRRVKDYSFDTGIEGLAWYVLIRLLSSERYLQKPFDKMYLDDLRGVCENVPNKVCHPGISLLLDYLVGKQIDDWYLVVLGKITSQRTGGEKKEALLWVEGLKYLLR	not soluble
GPGSMKKNLLADRTARVFEEARESATRLAAVSDTVSRAAVPHGIRHLFYTADTQREQRQCLAKVFAATCPSLHPLRSGEGEAGDGESSDPTSAAAAAHQDYILLILPDCAKVEDFISHVLLPGQADALRILGSQDDARCTDYLVERLDHTVQVQQQQRRRAETRKFIQRTVRKAEALDGDVGYPSSAPQPSPLFRRLEREVNATAAPIHAAASESQAPAPTSLATSPAVCAADSLTASSSPLRPPRRCFITCNCNNVRGLDLPHLTHVVILAQPTTALEYAHWCGRVGRFGRPGVSVTLMARSATRHMHQFCDSLGIAFRVEKRHAEVDVNAERWLSGADAE	soluble
MVKMLTMDKILSKKIKVNWLGGVFWLLPNLLDLFSASKRKASVRPYQSLLELVQENFLNRYDLVHFSFNGDHDFFHFNDLQAIRSFNFTIEEEQLGAMQPDEVLLFEPVDRVTVELDQKGLSLIHSGKAFCASANYFKHWLKRVPQQDKVTLVWRKSGFELKQ	soluble
MGSDKIHHHHHHMPIDTVGEQISLGKTSNEQANHIFLFLEVFKQEGGIQSYVKDIFRAYSGLSQGYQAEVLLLRDSPECSNPFTSNNLKFHYFQNPSPQIGRIKMAGVLLKFLLQRRPQMVFCGHIKLAVLVQTLCQPLGIPYTILTYGKEFWEPLKNQERRALAAAKEIWTISRYSRDRACAVNGIDPHKVKMLPCAIDGNKFTPGAKQPELIDKYGLTDAKVLMTVARLWSGDIYKGVDVTIRALPKIIQSFPEVKYLVIGRGDDQPRLAQLAQDLGVSDRVIFAGFVPTEQLMAHYRLADAYIMPSQEGFGIVYLEAMACGVPVLSGDDDGSADPLQDGKLGWRVPHRNPEAVAAACLEILQGDDQRCDGEWLREQAIALFGMDALQKQLLSLVHTQN	not soluble
MASSAQSGGSSGGPAVPTVQRGIIKMVLSGCAIIVRGQPRGGPPPERQINLSNIRAGNLARRAAATQPDAKDTPDEPWAFPAREFLRKKLIGKEVCFTIENKTPQGREYGMIYLGKDTNGENIAESLVAEGLATRREGMRANNPEQNRLSECEEQAKAAKKGMWSEGNGSHTIRDLKYTIENPRHFVDSHHQKPVNAIIEHVRDGSVVRALLLPDYYLVTVMLSGIKCPTFRREADGSETPEPFAAEAKFFTESRLLQRDVQIILESCHNQNILGTILHPNGNITELLLKEGFARCVDWSIAVYTRGAEKLRAAERVAKERRLRIWRDYVAPTANLDQKDKQFVAKVMQVLNADAIVVKLNSGDYKTIHLSSIRPPRLEGENTQDKNKKLRPLYDIPYMFEAREFLRKKLIGKKVNVTVDYIRPASPATETVPAFSERTCATVTIGGINIAEALVSKGLATVIRYRQDDDQRSSHYDELLAAEARAIKNGKGLHSKKEVPIHRVADISGDTQKAKQFLPFLQRAGRSEAVVEYVFSGSRLKLYLPKETCLITFLLAGIECPRGARNLPGLVQEGEPFSEEATLFTKELVLQREVEVEVESMDKAGNFIGWLHIDGANLSVLLVEHALSKVHFTAERSSYYKSLLSAEEAAKQKKEKVWAHYEEQPVEEVMPVLEEKERSASYKPVFVTEITDDLHFYVQDVETGTQLEKLMENMRNDIASHPPVEGSYAPRRGEFCIAKFVDGEWYRARVEKVESPAKIHVFYIDYGNREVLPSTRLGTLSPAFSTRVLPAQATEYAFAFIQVPQDDDARTDAVDSVVRDIQNTQCLLNVEHLSAGCPHVTLQFADSKGDVGLGLVKEGLVMVEVRKEKQFQKVITEYLNAQESAKSARLNLWRYGDFRADDADEFGYSR	soluble
MAHHHHHHMDREDDKKNKFPFTQNNCVVVRSKLDRKNISKMKLSDEQVTANEEITKSVLLKEVNMQDAYDQIGKNANDFSRIYNLFERELLNKSNIKNVYINGIKKNIIVDDGHMKTKVEKKSLKLIDEIHLTYKKRPIILIEKESSNHIINRNNVESFFVHNCLDNSGANRKGTHAASGGGEGAVTGPYNSIPIIYKMFNKKKSIKFSFIENDQISKLTETDWKCVIAVIIKSKESLKDILNEYPFEIPTALFQPFKSFFFMFNDVIIPSDLLTGGNVDIIRLSRDKRKEDYLAVNKFWTNIEKFILQRRDKSCYTRKKKF	not soluble
MGSDKIHHHHHHMIKHHPHAELLQAHAQGELPLSMSMAVAAHCALCQECQNQIAKLTEQAAKLAFVSSSDDPVQHNASNEIDVVDNDPWQQMLSNIMALPESTMSEPYIESSVTVSHRNIRYQIPRVFRQHIALPWQQIGKVSRMRFDIDEKNTRASLLYIEALGEIPQHTHKGFELTLLLSGEFSDSTGNYVVGDFIILDGNTQHSPTTQTGCLCYTVLDAPLYFTKGISKLLNPIGELIY	not soluble
MPVHSRGDKKETNHHDEMEVDYAENEGSSSEDEDTESSSVSEDGDSSEMDDEDCERRRMECLDEMSNLEKQFTDLKDQLYKERLSQVDAKLQEVIAGKAPEYLEPLATLQENMQIRTKVAGIYRELCLESVKNKYECEIQASRQHCESEKLLLYDTVQSELEEKIRRLEEDRHSIDITSELWNDELQSRKKRKDPFSPDKKKPVVVSGPYIVYMLQDLDILEDWTTIRKAMATLGPHRVKTEPPVKLEKHLHSARSEEGRLYYDGEWYIRGQTICIDKKDECPTSAVITTINHDEVWFKRPDGSKSKLYISQLQKGKYSIKHS	soluble
MARFTDKVAIITGSSNGIGRATAVLLATDGAKVTITGRDAARLEETRQAILKAGISATNVNSVVADVTTAEGQDLLISSTLDKFGKINILINNAGANIPDSQGQTRTKCSIENLTKMFQLNLQSVVEMVQKVRPHLAKTRGEIVNISSIGAGPAAQPASPYYSSAKAALDQYSRCAAIDLISEGIRINVVQPGFVSTGFSTAARGLSADESVKFYDLMGSLPHCIPAGYCGQPDHLASVIAFLVDRKVSEYIVGQTIIADGGSSLVIGCHAPRQ	not soluble
